1 molecule from article PMC4081072, “Structure and semi-sequence-specific RNA binding of Nrd1” can be followed below.

Assay in all cases: fluorescence anisotropy; FA: 10 nM RNA, 50 mM sodium phosphate pH 8, 150 mM NaCl, 10 mM beta-mercaptoethanol, 20 C (protein stock in 300 mM NaCl); NMR: same buffer with 300 mM NaCl, 20
Conditions in all cases: protein: recombinant; tags: C-terminal His6; label: 5' fluorescein or TAMRA (FA); unlabeled (NMR)

One data set has as its target T1, Nrd1 307-491 N349A (Saccharomyces cerevisiae, UniProt P53617 307-491, N349A).
T1 sequence: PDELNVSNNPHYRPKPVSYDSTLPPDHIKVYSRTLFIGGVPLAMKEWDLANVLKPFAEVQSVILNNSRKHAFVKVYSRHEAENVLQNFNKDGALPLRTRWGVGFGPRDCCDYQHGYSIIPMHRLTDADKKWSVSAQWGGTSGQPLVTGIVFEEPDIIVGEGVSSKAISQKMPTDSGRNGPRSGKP

In another data set the target is T2, Nrd1 307-491 H376A (Saccharomyces cerevisiae, UniProt P53617 307-491, H376A).
T2 sequence: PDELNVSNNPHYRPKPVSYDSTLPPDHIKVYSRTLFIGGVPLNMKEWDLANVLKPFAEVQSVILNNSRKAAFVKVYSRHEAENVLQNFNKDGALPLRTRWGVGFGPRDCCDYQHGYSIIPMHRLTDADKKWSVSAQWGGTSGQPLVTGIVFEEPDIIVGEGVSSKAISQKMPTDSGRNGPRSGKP

The next data set concerns the target T3, Nrd1 307-491 D417A (Saccharomyces cerevisiae, UniProt P53617 307-491, D417A).
T3 sequence: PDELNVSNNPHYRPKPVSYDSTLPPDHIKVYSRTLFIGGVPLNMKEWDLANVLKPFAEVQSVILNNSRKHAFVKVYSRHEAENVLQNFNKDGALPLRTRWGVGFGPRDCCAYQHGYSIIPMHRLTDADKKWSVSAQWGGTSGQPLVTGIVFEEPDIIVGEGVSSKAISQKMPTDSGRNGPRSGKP

In a further data set the target is T4, Nrd1 307-491 G344A (Saccharomyces cerevisiae, UniProt P53617 307-491, G344A).
T4 sequence: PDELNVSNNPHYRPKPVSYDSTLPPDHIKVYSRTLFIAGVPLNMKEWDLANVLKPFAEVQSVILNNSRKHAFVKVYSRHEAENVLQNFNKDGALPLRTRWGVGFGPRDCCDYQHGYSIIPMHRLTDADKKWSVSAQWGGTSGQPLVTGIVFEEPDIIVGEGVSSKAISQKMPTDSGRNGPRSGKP

The target in another data set is T5, Nrd1 307-491 WT (Saccharomyces cerevisiae, UniProt P53617 307-491).
T5 sequence: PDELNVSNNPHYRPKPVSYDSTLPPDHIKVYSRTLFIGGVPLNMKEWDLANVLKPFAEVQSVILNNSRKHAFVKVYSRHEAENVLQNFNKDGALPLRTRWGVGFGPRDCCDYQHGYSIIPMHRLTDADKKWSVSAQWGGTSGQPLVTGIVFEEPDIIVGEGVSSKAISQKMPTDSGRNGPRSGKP

The next data set addresses T6, Nrd1 307-491 R429D (Saccharomyces cerevisiae, UniProt P53617 307-491, R429D).
T6 sequence: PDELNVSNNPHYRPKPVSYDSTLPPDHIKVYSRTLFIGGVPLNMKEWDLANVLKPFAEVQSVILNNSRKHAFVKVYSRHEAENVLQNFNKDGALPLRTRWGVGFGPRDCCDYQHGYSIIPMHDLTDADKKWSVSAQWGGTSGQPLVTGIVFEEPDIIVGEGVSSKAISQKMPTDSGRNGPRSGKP

Another data set deals with T7, Nrd1 307-491 H385A (Saccharomyces cerevisiae, UniProt P53617 307-491, H385A).
T7 sequence: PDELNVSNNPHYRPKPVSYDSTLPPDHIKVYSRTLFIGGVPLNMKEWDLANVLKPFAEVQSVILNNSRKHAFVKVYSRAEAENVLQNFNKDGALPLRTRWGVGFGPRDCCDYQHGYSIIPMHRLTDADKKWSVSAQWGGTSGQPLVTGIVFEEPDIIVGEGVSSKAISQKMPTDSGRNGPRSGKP

A further data set has as its target T8, Nrd1 307-491 G407A (Saccharomyces cerevisiae, UniProt P53617 307-491, G407A).
T8 sequence: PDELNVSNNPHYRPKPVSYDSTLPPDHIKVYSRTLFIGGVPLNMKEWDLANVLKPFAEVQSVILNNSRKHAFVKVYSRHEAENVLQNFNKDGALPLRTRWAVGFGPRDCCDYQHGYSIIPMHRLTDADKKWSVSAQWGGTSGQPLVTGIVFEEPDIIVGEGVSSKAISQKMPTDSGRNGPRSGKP

B1: GUAA (ssRNA)
RNA: GUAA
Usually Kd stands for the concentration at which binding is half-saturated. For B1, the Kd with Nrd1 307-491 N349A stood at 10.2 ± 0.5 µM; in the data set with Nrd1 307-491 H376A, 59.1 ± 2.6 µM; with Nrd1 307-491 D417A, 17.9 ± 2 µM; with Nrd1 307-491 G344A, 80.8 ± 2.2 µM; with Nrd1 307-491 WT, 10.1 ± 0.8 µM; with Nrd1 307-491 R429D, 24.1 ± 1.7 µM. Moreover, the Kd in the data set with Nrd1 307-491 H385A amounted to 10.3 ± 1.7 µM; in the data set with Nrd1 307-491 G407A it was 13.9 ± 1.7 µM.
